Biological target: T1, Biotinylated human PTX3 (bPTX3) (human, UniProt P26022 18-381, biotin (sites not given))
T1 construct: Long pentraxin 3 (PTX3), human, as m1 but biotinylated; secreted by CHO cells and purified from the supernatant; Same protein as m1 with a biotin label; also called human bPTX3
Assay: ELISA; bPTX3 (0.56–17.92 pmol) on triplicate wells coated with 125 pmol/well of antigen; bound PTX3 from a standard curve of bPTX3; nonlinear fitting, one site binding curve; apparent
Details: both partners purified

T1 sequence (P26022 18-381): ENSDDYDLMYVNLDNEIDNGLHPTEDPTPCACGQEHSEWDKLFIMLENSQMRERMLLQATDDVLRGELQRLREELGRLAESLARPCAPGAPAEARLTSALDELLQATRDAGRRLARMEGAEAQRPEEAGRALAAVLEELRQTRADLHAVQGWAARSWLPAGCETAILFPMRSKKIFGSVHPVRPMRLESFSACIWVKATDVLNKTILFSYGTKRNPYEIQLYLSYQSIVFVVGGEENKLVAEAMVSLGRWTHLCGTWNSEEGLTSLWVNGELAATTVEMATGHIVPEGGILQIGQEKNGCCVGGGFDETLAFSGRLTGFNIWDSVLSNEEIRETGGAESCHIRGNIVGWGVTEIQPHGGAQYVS

Binder | Kd
Genome-derived Neisserial antigen GNA2091 (natural protein, Neisseria meningitidis, UniProt Q9JXE1 1-202, looked up, GNA2091, recombinant surface molecule of Neisseria meningitidis) CVSAVIGSAAVGAKSAVDRRTTGAQTDDNVMALRIETTARSYLRQNNQTKGYTPQISVVGYNRHLLLLGQVATEGEKQFVGQIARSEQAAEGVYNYITVASLPRTAGDIAGDTWNTSKVRATLLGISPATQARVKIVTYGNVTYVMGILTPEEQAQITQKVSTTVGVQKVITLYQNYVQR | 4 nM
Genome-derived Neisserial antigen GNA1030 (natural protein) ATYKVDEYHANARFAIDHFNTSTNVGGFYGLTGSVEFDQAKRDGKIDITIPIANLQSGSQHFTDHLKSADIFDAAQYPDIRFVSTKFNFNGKKLVSVDGNLTMHGKTAPVKLKAEKFNCYQSPMEKTEVCGGDFSTTIDRTKWGMDYLVNVGMTKSVRIDIQIEAAKQ | 37 nM

— PMC4364741, “Recognition of Neisseria meningitidis by the Long Pentraxin PTX3 and Its Role as an Endogenous Adjuvant” (PLoS ONE, 2015)
